For this assay, the target named is human DNM1L GTPase-GED (GG) fusion protein (human) (UniProt O00429). Nature of the assay: SEC; 60 µM protein incubated 30 min at 37°C with 2 mM GDP or GTP, 20 mM NaF and 2 mM AlCl3 (transition state mimic GDP/AlF4-); 20 mM Tris/HCl pH 8.0, 150 mM NaCl, 2 mM EGTA, 4 mM MgCl2, 1 mM DTT; Superdex S 75 HR 10/300; dimer at 9.5 ml, monomer at 11 ml. On the technique in general: SEC sorts molecules by how far they enter the pores of the column.

By stoichiometry N is commonly meant a count of units in the complex or per binding partner. Turning to “human DNM1L GTPase-GED (GG) fusion protein (from UniProt O00429 1-325) (domain or fragment)”, the stoichiometry N was found to be 2.

The values above are taken from publication PMC3747075.
